B1: Splicing factor 45 (Homo sapiens), Q96I25 (parent)
chain: MSLYDDLGVETSDSKTEGWSKNFKLLQSQLQVKKAALTQAKSQRTKQSTVLAPVIDLKRGGSSDDRQIVDTPPHVAAGLKDPVPSGFSAGEVLIPLADEYDPMFPNDYEKVVKRQREERQRQRELERQKEIEEREKRRKDRHEASGFARRPDPDSDEDEDYERERRKRSMGGAAIAPPTSLVEKDKELPRDFPYEEDSRPRSQSSKAAIPPPVYEEQDRPRSPTGPSNSFLANMGGTVAHKIMQKYGFREGQGLGKHEQGLSTALSVEKTSKRGGKIIVGDATEKDASKKSDSNPLTEILKCPTKVVLLRNMVGAGEVDEDLEVETKEECEKYGKVGKCVIFEIPGAPDDEAVRIFLEFERVESAIKAVVDLNGRYFGGRVVKACFYNLDKFRVLDLAEQV
B2: Splicing factor 45 (Homo sapiens), Q96I25 (parent)
chain: B1 chain
partner: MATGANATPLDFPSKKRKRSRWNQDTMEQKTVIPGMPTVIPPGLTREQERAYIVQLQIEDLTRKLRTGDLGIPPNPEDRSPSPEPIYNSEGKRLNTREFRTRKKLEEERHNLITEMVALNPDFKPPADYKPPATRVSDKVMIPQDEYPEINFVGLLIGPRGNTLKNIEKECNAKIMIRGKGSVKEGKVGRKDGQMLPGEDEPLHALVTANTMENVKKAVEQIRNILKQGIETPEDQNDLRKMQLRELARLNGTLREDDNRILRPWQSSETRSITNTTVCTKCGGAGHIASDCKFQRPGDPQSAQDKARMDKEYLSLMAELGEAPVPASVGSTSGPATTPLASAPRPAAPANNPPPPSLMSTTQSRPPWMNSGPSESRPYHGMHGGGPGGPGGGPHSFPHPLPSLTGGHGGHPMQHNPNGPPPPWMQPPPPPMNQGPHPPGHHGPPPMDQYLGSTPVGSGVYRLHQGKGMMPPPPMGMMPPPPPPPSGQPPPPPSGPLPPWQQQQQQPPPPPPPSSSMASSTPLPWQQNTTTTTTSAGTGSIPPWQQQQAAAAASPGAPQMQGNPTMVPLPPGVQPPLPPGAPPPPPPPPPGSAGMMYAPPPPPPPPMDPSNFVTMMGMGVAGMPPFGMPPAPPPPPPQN

Variants of: B1
Details: with U2AF2, P26368
Chain of U2AF2, P26368 (P26368 whole entry): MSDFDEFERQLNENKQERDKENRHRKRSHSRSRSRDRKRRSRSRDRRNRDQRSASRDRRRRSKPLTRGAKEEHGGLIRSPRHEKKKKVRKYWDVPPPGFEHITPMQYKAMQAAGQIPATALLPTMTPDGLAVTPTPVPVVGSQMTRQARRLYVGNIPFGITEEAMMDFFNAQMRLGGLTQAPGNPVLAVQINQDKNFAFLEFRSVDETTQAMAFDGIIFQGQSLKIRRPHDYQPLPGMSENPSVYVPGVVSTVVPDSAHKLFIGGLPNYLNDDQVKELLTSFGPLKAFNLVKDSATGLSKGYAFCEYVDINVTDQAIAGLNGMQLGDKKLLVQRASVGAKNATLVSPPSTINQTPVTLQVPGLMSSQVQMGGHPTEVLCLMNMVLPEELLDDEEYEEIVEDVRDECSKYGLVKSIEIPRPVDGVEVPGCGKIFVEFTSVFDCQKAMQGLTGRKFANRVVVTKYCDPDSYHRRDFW

Row | Variant | effect of a mutation on the interaction
1 | R375D | disrupting interaction
2 | R375A | disrupting interaction
3 | E329Q | disrupting interaction
4 | D319K | disrupting interaction
5 | D319A;E320A;D321A | disrupting interaction strength
6 | F377A | decreasing interaction

Variants of: B1
Details: with SF3B1, O75533-1
Chain of SF3B1, O75533-1 (O75533 whole entry): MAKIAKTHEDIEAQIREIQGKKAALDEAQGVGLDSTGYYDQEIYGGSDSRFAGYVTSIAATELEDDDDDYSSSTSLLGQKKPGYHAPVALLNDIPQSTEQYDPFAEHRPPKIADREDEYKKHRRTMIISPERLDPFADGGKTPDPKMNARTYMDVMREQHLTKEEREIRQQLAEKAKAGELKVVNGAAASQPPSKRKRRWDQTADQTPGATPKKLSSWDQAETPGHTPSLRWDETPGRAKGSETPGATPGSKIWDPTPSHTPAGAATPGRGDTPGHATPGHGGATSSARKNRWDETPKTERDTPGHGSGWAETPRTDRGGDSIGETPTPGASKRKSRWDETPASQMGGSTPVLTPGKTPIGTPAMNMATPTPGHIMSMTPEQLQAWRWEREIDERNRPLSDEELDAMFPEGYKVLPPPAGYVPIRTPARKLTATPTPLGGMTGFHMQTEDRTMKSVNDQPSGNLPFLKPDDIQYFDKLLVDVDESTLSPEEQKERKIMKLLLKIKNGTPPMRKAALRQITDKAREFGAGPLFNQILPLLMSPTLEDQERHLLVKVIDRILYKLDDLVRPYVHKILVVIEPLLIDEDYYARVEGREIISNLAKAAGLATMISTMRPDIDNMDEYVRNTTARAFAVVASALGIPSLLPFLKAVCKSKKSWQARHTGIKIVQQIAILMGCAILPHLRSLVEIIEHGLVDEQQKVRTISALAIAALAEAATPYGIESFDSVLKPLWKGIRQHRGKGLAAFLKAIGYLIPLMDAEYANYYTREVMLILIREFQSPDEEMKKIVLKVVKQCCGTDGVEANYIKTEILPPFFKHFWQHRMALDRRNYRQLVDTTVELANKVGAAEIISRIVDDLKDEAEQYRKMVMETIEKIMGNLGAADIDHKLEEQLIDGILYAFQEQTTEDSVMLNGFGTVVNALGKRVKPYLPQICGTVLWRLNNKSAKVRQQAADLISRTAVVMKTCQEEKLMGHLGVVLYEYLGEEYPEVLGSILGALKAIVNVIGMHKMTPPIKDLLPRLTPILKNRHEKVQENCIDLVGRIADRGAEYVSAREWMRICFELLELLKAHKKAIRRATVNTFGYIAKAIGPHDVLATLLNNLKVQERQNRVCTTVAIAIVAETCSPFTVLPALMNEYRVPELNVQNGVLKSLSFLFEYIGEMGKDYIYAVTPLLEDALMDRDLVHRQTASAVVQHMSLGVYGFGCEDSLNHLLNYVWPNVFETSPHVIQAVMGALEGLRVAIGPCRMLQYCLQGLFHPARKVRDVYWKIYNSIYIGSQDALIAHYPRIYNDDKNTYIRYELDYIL

Row | Variant | effect of a mutation on the interaction
7 | R375A | disrupting interaction
8 | E329Q | decreasing interaction
9 | D319K | disrupting interaction
10 | D319A;E320A;D321A | disrupting interaction strength
11 | Y376A | disrupting interaction
12 | F377A | disrupting interaction

Variants of: B2
Details: with sf01_human SF1, Q15637

Row | Variant | effect of a mutation on the interaction
13 | D319K | disrupting interaction
14 | D319A | disrupting interaction
15 | F377A | decreasing interaction
16 | F377Y | decreasing interaction
17 | Y376A | decreasing interaction
18 | R375D | disrupting interaction
19 | R375A | decreasing interaction

From IntAct's records for PubMed 17589525
